According to article PMC9628480, “Discovery and structural characterization of chicoric acid as a SARS-CoV-2 nucleocapsid protein ligand and RNA binding disruptor”:

Tests used:
N protein NTD = N protein NTD (SARS-CoV-2, UniProt A0A6B9VLF5 43-174); assay: fluorescence polarization; conditions: protein: recombinant; tags: SUMO tag (pET-SUMO) cleaved; label: 5'-FITC; hairpin
N protein CTD = N protein CTD (SARS-CoV-2, UniProt A0A6B9VLF5 250-364); assay: fluorescence polarization; conditions: protein: recombinant; tags: SUMO tag (pET-SUMO) cleaved; chain copies: 2; label: 5'-FITC; hairpin

B1: RNA1 (structured_RNA)
RNA: CACUCACUGUCUUUUUUGAUGGUAGAGU
- binding result (N protein NTD): no binding
- binding result (N protein CTD): no binding
